Source: publication PMC9282251 (Proceedings of the National Academy of Sciences of the …, 2022)

Biological target: the molecule itself
Test: single-molecule photobleaching and fluorescence intensity analysis

B1: K401-clip labeled with Alexa-647 (domain or fragment)
chain: not shown
modifications: Alexa-647 label (labeling efficiencies of 15% monomer and 58% monomer in two preparations)
- stoichiometry N: 2
